From US20190017096A1

Molecular target: Rab6a (Ras-related protein Rab-6A) (Homo sapiens (Human)) (UniProt P20340)
Experiment: cell-based or functional assay

Chain of UniProt P20340 (P20340 whole entry): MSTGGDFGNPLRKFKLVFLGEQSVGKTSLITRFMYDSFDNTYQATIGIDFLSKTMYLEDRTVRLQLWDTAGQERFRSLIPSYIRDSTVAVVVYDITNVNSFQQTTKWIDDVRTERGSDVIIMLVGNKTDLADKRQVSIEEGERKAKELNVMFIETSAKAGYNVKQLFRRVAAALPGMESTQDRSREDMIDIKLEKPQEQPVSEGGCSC

Row | Substance | biotinylated substrate with Rab6a compared to Rab27a (in vitro prenylation, WB; untransduced 293 lysate, endogenous REP1, FIG. 9) [fold] | strength of the WB signal for biotinylated Rab6a (FIG. 3) compared to biotinylated Rab27a (FIG. 2), AAV-REP1 transduced cells [fold] | band intensity of biotinylated Rab6a (FIG. 3) compared to biotinylated Rab27a (FIG. 2), positive controls spiked with fish REP1 [fold]
1 | human Rab escort protein 1 (REP1) (from UniProt P24386 1-653) | 2.5 | 10 | –
2 | fish REP1 | – | – | 100
